Measured values published in patent US20260152559A1 (Janssen / Centocor, published 2026).
Changes are numbered by the printed parent chain.

B1: CAR6 (LH_LCHumanized_HCF3_20AA) (other)
chain: DIVLTQSPDSLAVSLGERATINCKASESVEYFGTSLMHWYQQKPGQPPKLLIYAASNRESGVPDRFSGSGSGTDFTLTISSLQAEDVAVYYCQQTRKVPYTFGQGTKLEIKGGSEGKSSGSGSESKSTGGSQVQLQESGPGLVKPSDTLSLTCAVSGNSITSDYAWNWIRQFPGKGLEWIGYISYSGSTTYNPSLKSRVTISRDTSKNQFSLKLSSVTPVDTAVYYCATGYYYGSGFWGQGTLVTVSSTSTPAPRPPTPAPTIASQPLSLRPEACRPAAGGAVHTRGLDFACDIYIWAPLAGTCGVLLLSLVITLYCKRGRKKLLYIFKQPFMRPVQTTQEEDGCSCRFPEEEEGGCELRVKFSRSADAPAYKQGQNQLYNELNLGRREEYDVLDKRRGRDPEMGGKPRRKNPQEGLYNELQKDKMAEAYSEIGMKGERRRGKGHDGLYQGLSTATKDTYDALHMQALPPR
notes: Chimeric antigen receptor on JNL cells or primary human T cells; also called hK2 CAR; pDR000083440
B2: CAR7 (LH_LCHumanized_HCG5_20AA) (other)
chain: B1 chain with I180M
notes: Chimeric antigen receptor on JNL cells or primary human T cells; also called hK2 CAR; pDR000083441
B3: CAR15 (LH_LCHumanized_HCHumanized_20AA) (other)
chain: B1 chain with F172P, I201M, P219A
notes: Chimeric antigen receptor with the hu11B6 scFv in VL-linker-VH order, on JNL cells or primary human T cells; also called 11B6_LH; parental 11B6 CAR LH
B4: CAR2 (HL_HCG5_LCHumanized_20AA) (other)
chain: QVQLQESGPGLVKPSDTLSLTCAVSGNSITSDYAWNWIRQFPGKGLEWMGYISYSGSTTYNPSLKSRVTISRDTSKNQFSLKLSSVTPVDTAVYYCATGYYYGSGFWGQGTLVTVSSGGSEGKSSGSGSESKSTGGSDIVLTQSPDSLAVSLGERATINCKASESVEYFGTSLMHWYQQKPGQPPKLLIYAASNRESGVPDRFSGSGSGTDFTLTISSLQAEDVAVYYCQQTRKVPYTFGQGTKLEIKTSTPAPRPPTPAPTIASQPLSLRPEACRPAAGGAVHTRGLDFACDIYIWAPLAGTCGVLLLSLVITLYCKRGRKKLLYIFKQPFMRPVQTTQEEDGCSCRFPEEEEGGCELRVKFSRSADAPAYKQGQNQLYNELNLGRREEYDVLDKRRGRDPEMGGKPRRKNPQEGLYNELQKDKMAEAYSEIGMKGERRRGKGHDGLYQGLSTATKDTYDALHMQALPPR
notes: Chimeric antigen receptor on JNL cells or primary human T cells; also called hK2 CAR; pDR000083432
B5: CAR13 (HL_HCHumanized_LCHumanized_20AA) (other)
chain: B4 chain with F41P, M49I, I70M, P88A
notes: Chimeric antigen receptor with the hu11B6 scFv in VH-linker-VL order, on JNL cells or primary human T cells; also called 11B6_HL; parental 11B6 CAR HL
B6: CAR1 (HL_HCG5_LCD6_20AA) (other)
chain: B4 chain with S217Q, L219V, A225S, Y228F
notes: Chimeric antigen receptor (scFv, CD8a hinge and transmembrane region, 4-1BB and CD3-zeta domains) on JNL cells or primary human T cells; also called hK2 CAR; pDR000083431
B7: KL2B494 Fab (binding arm listed in Table 39 for hK2/CD3 bispecific antibodies) (bispecific antibody, V domains shown)
VH: QVQLVESGGGLVQPGGSLRLSCAASGFTFSHYAMSWVRQAPGKGLEWVSTIGGSGGSTYYADSVKGRFTISRDNSKNTLYLQMNSLRAEDTAVYYCAKPHIVMVTALLYDGMDVWGQGTMVTVSS
VL: SSELTQPPSVSVAPGQTARITCGGNNIGSKSVHWYQQKPGQAPVLVVYDDSDRPSGIPERFSGSNSGNTATLTISRVEAGDEADYYCQVWDSSSDHVVFGGGTKLTVL
B8: KL2B467 Fab (binding arm listed in Table 39 for hK2/CD3 bispecific antibodies) (bispecific antibody, V domains shown)
VH: QVQLVESGGGVVQPGRSLRLSCAASGFTFSYYGMHWVRQAPGKGLEWVAFISYDGSNKYYADSVKGRFTISRDNSKNTLYLQMNSLRAEDTAVYYCAHLPYSGSYWAFDYWGQGTQVTVSS
VL: QSVLTQPPSVSVAPGQTASITCGGDNIGSKSVHWYQQKPGQAPVLVVYDNSDRPSGIPERFSGSNSGTTATLTISRVEAGDEADYYCQVWDSSSDHPVVFGGGTKVTV
B9: KL2B413 (scFv-LH-Fc) (Fc fusion)
chain: EIVLTQSPSFLSASVGDRVTITCRASQGISSYLSWYQQKPGKAPKLLIYATSTLQSGVPSRFSGSGSGTEFTLTISSLQPEDFATYYCQQLNSYPRTFGQGTKVEIKGGSEGKSSGSGSESKSTGGSEVQLVESGGGLVQPGGSLRLSCAASGFTFSSYWMTWVRQAPGKGLEWVANIKQDGSERYYVDSVKGRFTISRDNAKNSLYLQMNSLRAEDTAVYYCARDQNYDILTGHYGMDVWGQGTTVTVSSEPKSSDKTHTCPPCPAPEAAGGPSVFLFPPKPKDTLMISRTPEVTCVVVSVSHEDPEVKFNWYVDGVEVHNAKTKPREEQYNSTYRVVSVLTVLHQDWLNGKEYKCKVSNKALPAPIEKTISKAKGQPREPQVYVLPPSREEMTKNQVSLLCLVKGFYPSDIAVEWESNGQPENNYLTWPPVLDSDGSFFLYSKLTVDKSRWQQGNVFSCSVMHEALHNHYTQKSLSLSPG
notes: also called KL2B413-LH-scFv-Fc
B10: KL2B359 (scFv-LH-Fc) (Fc fusion)
chain: EIVLTQSPATLSLSPGERATLSCRASESVEYFGTSLMHWYQQKPGQPPRLLIYAASNVESGIPARFSGSGSGTDFTLTISSVEPEDFAVYFCQQTRKVPYTFGGGTKVEIKGGSEGKSSGSGSESKSTGGSQVQLQESGPGLVKPSQTLSLTCTVSGNSITSDYAWNWIRQFPGKRLEWIGYISYSGSTTYNPSLKSRVTISRDTSKNQFSLKLSSVTAADTAVYYCATGYYYGSGFWGQGTLVTVSSEPKSSDKTHTCPPCPAPEAAGGPSVFLFPPKPKDTLMISRTPEVTCVVVSVSHEDPEVKFNWYVDGVEVHNAKTKPREEQYNSTYRVVSVLTVLHQDWLNGKEYKCKVSNKALPAPIEKTISKAKGQPREPQVYVLPPSREEMTKNQVSLLCLVKGFYPSDIAVEWESNGQPENNYLTWPPVLDSDGSFFLYSKLTVDKSRWQQGNVFSCSVMHEALHNHYTQKSLSLSPG
notes: also called KL2B359-LH-scFv-Fc
B11: KL2B30 (Fab) (Fab, V domains shown)
VH: QVQLQESGPGLVKPSETLSLTCTVSGGSISSYYWSWIRQPPGKGLEWIGYIYYSGSTNYNPSLKSRVTISVDTSKNQFSLKLSSVTAADTAVYYCAGTTIFGVVTPNFYYGMDVWGQGTTVTVSS
VL: DIQMTQSPSFLSASVGDRVTITCRASQGISSYLAWYQQKPGKAPKFLIYAASTLQSGVPSRFSGSGSGTEFTLTISSLQPEDFATYYCQQLNSYPLTFGGGTKVEIK
B12: KL2B494 (Fab) (Fab, V domains shown)
VH: B7 VH
VL: B7 VL
B13: KL2B53 (Fab) (Fab, V domains shown)
VH: EVQLVESGGGVVQPGRSLRLSCVASGFTFSSYDIHWVRQAPGKGLEWVAIISYDGSKKDYTDSVKGRFTISRDNSKNTLYLQMDSLRVEDSAVYSCARESGWSHYYYYGMDVWGQGTMVTVSS
VL: DIVMTQSPSSLSASVGDRVTITCRASQDISNYLAWYQQKPGKVPKFLIYAASTLHSGVPSRFSGSGSGTDFTLTISSLQPEDVATYYCQKYNSAPYTFGQGTRLEIK
B14: KL2B242 (Fab) (Fab, V domains shown)
VH: QVQLQESGPGLVKPSETLSLTCTVSGGSISSYYWSWLRQPAGSGLEWIGRLYVSGFTNYNPSLKSRVTLSLDPSRNQLSLKLSSVTAADTAVYYCAGDSGNYWGWFDPWGQGTLVTVSS
VL: SYELTQPPSVSVSPGETASITCSGDQLGENYACWYQQKPGQSPVLVIYQDSKRPSGIPERFSGSNSGNTATLTISGTQALDEADYYCQAWDNSIVVFGGGTKLTVL
B15: KL2B467 (Fab) (Fab, V domains shown)
VH: B8 VH
VL: B8 VL
B16: CAR8 (LH_LCB7_HCF3_20AA) (other)
chain: B1 chain with L82V
notes: Chimeric antigen receptor on JNL cells or primary human T cells; also called hK2 CAR; pDR000083443
B17: CAR9 (LH_LCB7_HCG5_20AA) (other)
chain: B1 chain with L82V, I180M
notes: Chimeric antigen receptor on JNL cells or primary human T cells; also called hK2 CAR; pDR000083444
B18: CAR4 (HL_HCG5_LCB7_20AA) (other)
chain: B4 chain with L219V
notes: Chimeric antigen receptor on JNL cells or primary human T cells; also called hK2 CAR; pDR000083437
B19: CAR3 (HL_HCF3_LCB7_20AA) (other)
chain: B4 chain with M49I, L219V
notes: Chimeric antigen receptor on JNL cells or primary human T cells; also called hK2 CAR; pDR000083436

What follows are binders tested against T1, kallikrein related peptidase 2 (hK2), soluble (human, UniProt P20151 19-261, biotin label in the CAR staining assays (site not stated)) (assay: flow cytometry, primary human T cells transduced with the CAR lentivirus (MOI 3), biotinylated hK2 (1 ug/ml) then streptavidin-PE, 14 days after transduction; UTD gate 0.086).
T1 construct: also called KLK2; human KLK2 protein
T1 sequence (P20151 19-261): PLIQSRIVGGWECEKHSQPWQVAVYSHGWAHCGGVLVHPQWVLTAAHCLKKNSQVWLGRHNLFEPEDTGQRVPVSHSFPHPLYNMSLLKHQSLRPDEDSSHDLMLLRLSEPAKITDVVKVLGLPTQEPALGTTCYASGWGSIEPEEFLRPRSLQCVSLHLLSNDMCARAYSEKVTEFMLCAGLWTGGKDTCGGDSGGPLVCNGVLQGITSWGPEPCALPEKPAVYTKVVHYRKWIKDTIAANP
With B1 the “% of cells in the hK2CAR+ CD3+ gate” value was 27.8%. B2 was tested, and the “% of cells in the hK2CAR+ CD3+ gate” value was 35%. In the case of B3, the “% of cells in the hK2CAR+ CD3+ gate” value is reported as 22.6%. In the case of B4, the “% of cells in the hK2CAR+ CD3+ gate” value is reported as 23.6%. With B5 the “% of cells in the hK2CAR+ CD3+ gate” value was 6.12%. In the case of B6, the “% of cells in the hK2CAR+ CD3+ gate” value is reported as 20%.

Each binder was assayed against T1, kallikrein related peptidase 2 (hK2), … (assay: SPR; bispecific antibody captured on anti-Fc sensor chip, soluble hK2 injected; 1:1 Langmuir fit).
Protocol: Affinity of selected hK2×CD3 bispecific antibodies to hK2 or human CD3 was measured by surface plasmon resonance (SPR). SPR is a label-free technique to study the strength of an interaction between two binding partners by measuring the change in mass upon complex formation and dissociation. Antibodies were captured on a sensor chip coated with an anti-Fc antibody followed by injection of soluble hK2 or soluble recombinant human CD3 at various concentrations and specified association and dissociation times. Post dissociation, the surface was regenerated with an appropriate solution to prepare for the next interaction. Kinetic information (on-rate and off-rate constants) were extracted by fitting sensorgrams to the 1:1 Langmuir model. Binding affinity (KD) are reported as the ratio of rate constants (koff/kon).
With B7 the Kd was 0.06 nM. Work on B8 yielded a Kd of 0.09 nM.

What follows are binders tested against T1, kallikrein related peptidase 2 (hK2), … (assay: SPR; antibody captured on anti-Fc sensor chip, soluble hK2 injected; 1:1 Langmuir fit, KD = koff/kon).
Protocol: Affinity of selected hK2 antibodies for soluble hK2 was measured by surface plasmon resonance (SPR). […] Antibodies were captured on a sensor chip coated with an anti-Fc antibody followed by injection of soluble hK2 at various concentrations and specified association and dissociation times. Post dissociation, the surface was regenerated with an appropriate solution to prepare for the next interaction. Kinetic information (on-rate and off-rate constants) were extracted by fitting sensorgrams to the 1:1 Langmuir model. Binding affinity (KD) are reported as the ratio of rate constants (koff/kₒₙ).
With B9 the Kd was 34.3 nM. B10 gave a Kd of 0.7 to 1 nM. For B11, the Kd was 0.46 nM. For B12, the Kd was 0.053 nM. B13 showed a Kd of 0.08 nM. B14 showed a Kd of 0.04 nM. With B15 the Kd was 0.078 nM.

These binders were tested against T1, kallikrein related peptidase 2 (hK2), … (assay: flow cytometry, primary human T cells transduced with the CAR lentivirus (MOI 3), biotinylated hK2 (1 ug/ml) then streptavidin-PE, 14 days after transduction; UTD gate 0.086 [contd]).
For B16, the “% of cells in the hK2CAR+ CD3+ gate” value was 21.5%. With B17 the “% of cells in the hK2CAR+ CD3+ gate” value was 30.6%. B18 was tested, and the “% of cells in the hK2CAR+ CD3+ gate” value was 42.7%. B19 was tested, and the “% of cells in the hK2CAR+ CD3+ gate” value was 29.4%.
